For this test, the target named is peptide containing the sequence LAETG.

B1: SrtE1^ΔN, extracellular domain of sortase E1 from Streptomyces coelicolor (residues T162-S352), Q9XA14 162-352 (enzyme)
chain: TNVRAHAQANQAASNLQDDWANGKRSPGSFEPGQGFALLHIPKLDVVVPIAEGISSKKVLDRGMVGHYAEDGLKTAMPDAKAGNFGLAGHRNTHGEPFRYINKLEPGDPIVVETQDKYFVYKMASILPVTSPSNVSVLDPVPKQSGFKGPGRYITLTTCTPEFTSKYRMIVWGKMVEERPRSKGKPDALVS
Consider B1, for which the hydrolysis of the peptide at the T-G bond, in vitro HPLC assay (area of the N-terminal product peak); preference against the LPETG peptide was found to be 2 fold.

Source of the values: paper PMC5148588.
